Target: 4-1BB (UniProt Q07011)
Test: cell-based or functional assay

Chain of 4-1BB (Q07011 24-255 limits assumed): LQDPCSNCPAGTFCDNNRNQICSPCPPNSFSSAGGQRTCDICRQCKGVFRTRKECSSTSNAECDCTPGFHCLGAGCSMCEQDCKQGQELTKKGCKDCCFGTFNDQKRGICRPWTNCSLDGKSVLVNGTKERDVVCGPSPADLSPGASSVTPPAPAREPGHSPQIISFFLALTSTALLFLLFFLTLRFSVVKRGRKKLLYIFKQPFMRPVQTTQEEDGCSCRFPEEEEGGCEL

expansion of TRAC-1XX-iT cells from D35 to D42: 30 fold
Substance: 4-1BB ligand (from UniProt P41273 1-254)

— US20250207095A1
